Data reported in patent US20210030857A1 (NGM BIOPHARMACEUTICALS, published 2021).
Values joined by “and” are separate entries in the source; they are usually repeats but may differ in a detail not shown here. Identical values can stand only once. Like-named read-outs stand apart in the source and are kept apart here. Blank lines part the entries; values can stand above or below the binder they belong to.

Experiments:
[1] = target: T1, human beta klotho / human FGFR1c receptor complex on cells (human, UniProt Q86Z14 1-1044; P11362 22-822); assay: cell-based or functional assay
Target sequence in this assay (Q86Z14 whole entry, chain 1 of 2): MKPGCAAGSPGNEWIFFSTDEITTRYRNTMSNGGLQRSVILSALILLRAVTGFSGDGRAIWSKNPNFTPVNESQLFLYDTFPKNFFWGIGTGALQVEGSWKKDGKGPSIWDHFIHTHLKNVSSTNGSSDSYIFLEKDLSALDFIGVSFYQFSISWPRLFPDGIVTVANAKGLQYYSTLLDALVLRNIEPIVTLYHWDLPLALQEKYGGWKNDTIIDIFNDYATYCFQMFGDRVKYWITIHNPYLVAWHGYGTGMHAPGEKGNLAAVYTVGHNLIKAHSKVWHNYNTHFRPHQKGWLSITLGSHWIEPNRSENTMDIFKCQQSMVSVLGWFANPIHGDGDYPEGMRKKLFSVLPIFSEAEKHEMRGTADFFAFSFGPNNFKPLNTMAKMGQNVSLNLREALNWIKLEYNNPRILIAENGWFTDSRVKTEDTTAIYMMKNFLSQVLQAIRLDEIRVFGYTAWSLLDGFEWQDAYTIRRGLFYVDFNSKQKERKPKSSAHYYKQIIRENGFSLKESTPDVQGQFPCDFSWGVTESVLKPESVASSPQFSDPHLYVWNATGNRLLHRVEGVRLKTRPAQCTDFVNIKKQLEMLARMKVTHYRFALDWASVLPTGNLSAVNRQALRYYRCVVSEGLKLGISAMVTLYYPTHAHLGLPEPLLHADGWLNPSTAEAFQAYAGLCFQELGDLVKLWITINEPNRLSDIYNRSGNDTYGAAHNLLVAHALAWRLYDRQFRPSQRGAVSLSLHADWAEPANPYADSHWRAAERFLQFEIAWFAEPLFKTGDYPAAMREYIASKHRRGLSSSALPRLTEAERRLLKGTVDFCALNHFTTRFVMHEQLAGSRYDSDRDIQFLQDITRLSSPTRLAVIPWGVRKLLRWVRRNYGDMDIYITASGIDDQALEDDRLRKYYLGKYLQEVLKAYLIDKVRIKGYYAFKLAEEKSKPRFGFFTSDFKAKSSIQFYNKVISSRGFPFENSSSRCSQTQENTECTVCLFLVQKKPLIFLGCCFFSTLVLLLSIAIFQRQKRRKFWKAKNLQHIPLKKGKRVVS
Target sequence in this assay (P11362 22-822 limits assumed, chain 2 of 2): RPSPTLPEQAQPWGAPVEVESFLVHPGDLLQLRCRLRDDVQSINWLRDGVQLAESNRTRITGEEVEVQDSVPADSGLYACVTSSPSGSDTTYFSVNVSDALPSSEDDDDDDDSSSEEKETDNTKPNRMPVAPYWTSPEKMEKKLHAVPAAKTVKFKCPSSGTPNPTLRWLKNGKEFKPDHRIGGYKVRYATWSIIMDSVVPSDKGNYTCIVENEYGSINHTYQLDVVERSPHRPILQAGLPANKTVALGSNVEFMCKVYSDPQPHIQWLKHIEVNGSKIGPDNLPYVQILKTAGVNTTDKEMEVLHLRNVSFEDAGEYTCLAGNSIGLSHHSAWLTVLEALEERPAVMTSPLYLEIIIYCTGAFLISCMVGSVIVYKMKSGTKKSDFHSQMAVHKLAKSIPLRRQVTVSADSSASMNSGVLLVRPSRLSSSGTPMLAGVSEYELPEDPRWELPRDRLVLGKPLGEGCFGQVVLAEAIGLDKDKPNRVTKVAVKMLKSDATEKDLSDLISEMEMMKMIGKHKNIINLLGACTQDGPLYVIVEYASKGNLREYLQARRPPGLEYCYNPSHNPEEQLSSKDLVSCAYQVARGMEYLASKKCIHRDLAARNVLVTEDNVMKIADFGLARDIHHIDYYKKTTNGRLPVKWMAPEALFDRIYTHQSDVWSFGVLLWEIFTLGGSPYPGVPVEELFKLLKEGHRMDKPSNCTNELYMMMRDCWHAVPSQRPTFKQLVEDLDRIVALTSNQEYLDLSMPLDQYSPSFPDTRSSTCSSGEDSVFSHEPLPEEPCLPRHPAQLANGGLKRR

[2] = target: T1, human beta klotho / human FGFR1c …; assay: cell-based or functional assay; remark: listed apart in the source
Target sequence in this assay (P11362 22-822 limits assumed, one chain of several): as the sequence (P11362 22-822 limits assumed, chain 2 of 2) above

[3] = target: T2, cynomolgus monkey beta klotho protein (soluble, used in Biacore) (cynomolgus monkey (Macaca fascicularis), UniProt Q86Z14 53-996 (human entry), limits assumed); assay: Biacore SPR (as in Example 2)
T2 construct: Protein in solution; also called Cyno KLB; cyKLB
T2 chain: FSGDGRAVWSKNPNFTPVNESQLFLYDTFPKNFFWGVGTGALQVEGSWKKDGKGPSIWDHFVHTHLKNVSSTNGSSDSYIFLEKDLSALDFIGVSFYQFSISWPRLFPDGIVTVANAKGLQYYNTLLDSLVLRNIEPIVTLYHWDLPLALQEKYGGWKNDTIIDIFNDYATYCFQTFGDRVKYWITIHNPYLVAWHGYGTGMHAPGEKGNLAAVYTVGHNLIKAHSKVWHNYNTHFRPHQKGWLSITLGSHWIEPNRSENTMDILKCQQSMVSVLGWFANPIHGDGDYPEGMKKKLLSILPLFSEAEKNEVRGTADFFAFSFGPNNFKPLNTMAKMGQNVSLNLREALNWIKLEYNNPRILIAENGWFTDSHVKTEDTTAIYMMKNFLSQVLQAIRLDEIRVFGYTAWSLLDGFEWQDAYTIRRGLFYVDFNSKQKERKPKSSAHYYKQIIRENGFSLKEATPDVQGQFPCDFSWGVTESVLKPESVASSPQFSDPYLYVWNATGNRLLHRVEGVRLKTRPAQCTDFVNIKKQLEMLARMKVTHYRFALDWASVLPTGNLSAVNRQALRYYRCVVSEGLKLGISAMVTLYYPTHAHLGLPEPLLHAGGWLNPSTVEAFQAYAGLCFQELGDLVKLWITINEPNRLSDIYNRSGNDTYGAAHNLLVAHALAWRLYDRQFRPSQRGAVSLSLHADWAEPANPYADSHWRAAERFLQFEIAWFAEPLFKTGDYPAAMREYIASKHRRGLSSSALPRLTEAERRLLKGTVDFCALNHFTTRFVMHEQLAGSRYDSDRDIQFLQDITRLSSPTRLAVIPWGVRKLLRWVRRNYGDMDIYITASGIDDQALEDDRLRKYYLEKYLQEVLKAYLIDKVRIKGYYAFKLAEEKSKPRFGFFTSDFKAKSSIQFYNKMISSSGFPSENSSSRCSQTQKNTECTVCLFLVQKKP

- EC50 adipocyte [1]: 11.2 nM
- EC50 reporter assay [1]: 0.6 nM
B1: humanized 5H23 antibody (VH SEQ ID NO: 271 and VL SEQ ID NO: 276) (antibody, V domains shown)
VH: QVQLQQSGAEVKKPGASVKVSCKASGYTFTSYDINWVRQAPGQGLEWIGWIYPGDGSTKYNEKFKGKATITRDTSASTAYMELSSLRSEDTAVYFCARSDYYGSRSFAYWGQGTLVTVSS
VL: DIVMTQSPDSLAVSLGERATINCRASKSVSTSGYVYMHWYQQKPGQPPKLLIYLASYLESGVPDRFSGSGSGTDFTLTISSVQAEDVAVYYCQHSRDLTFPFGGGTKLEIK
notes: also called h5H23; h5H23 (Prep 1)

- EC50-adipocyte [2]: 3.4 nM
- EC50 reporter assay [2]: 0.27 nM and 0.51 nM
- Kd [3]: 0.7 nM
B2: antibody 5H23 (antibody, V domains shown)
VH: QVQLQQSGPELVKPGALVKISCKASGYTFTSYDINWVKQRPGQGLEWIGWIYPGDGSTKYNEKFKGKATLTADKSSRTAYMQLSSLTSENSAVYFCARSDYYGSRSFAYWGQGTLVTVSA
VL: DIVLTQSPASLAVSLGQRATISCRASKSVSTSGYVYMHWNQQKPGQPPKLLIYLASYLESGVPARFSGSGSGTDFTLNIHPVEEEDAAIYYCQHSRDLTFPFGGGTKLEIK
notes: Murine monoclonal antibody from hybridoma; also called 5H23-Alexa647 (labelled form)
